Results published in PMC8693174.

Experiments:
Experiment in all cases: potentiometry
Conditions in all cases: 25 °C; I = 0.1 M (KNO3); samples in 96 mM KNO3/4 mM HNO3; none (96 mM KNO3/4 mM HNO3); Free peptide, no metal, under argon
[1] = molecular target: Nterm1 (position 1, -----RHDSG-)
[2] = molecular target: His2 (position 2, ----RHDSG--)
[3] = molecular target: Asp3 (position 3, ---RHDSG---)

B1: Amyloid-beta 5-9 peptide (Abeta5-9), Arg-His-Asp-Ser-Gly-NH2 (Homo sapiens (synthetic peptide)) (peptide)
chain: RHDSG
[1]
  pKa: 7.37
[2]
  pKa: 6.13
[3]
  pKa: 3.17
